Results: PMC8778164, “Towards Complete Tumor Resection: Novel Dual-Modality Probes for Improved Image-Guided Surgery of GRPR-Expressing Prostate Cancer” (Pharmaceutics, 2022)
Read-outs that look alike come from different tables or passages of the source.

Assays:
[1] = Stability in PBS at 37 °C (iTLC); type: physicochemical; conditions: intact labeled ligand after incubation at 37 °C in PBS, n = 1
Protocol: Stability in PBS was determined by incubating 20 µL of the labeled compounds (∼11 MBq) in PBS (80 µL) at 37 °C. Radiochemical purity was determined by iTLC at 30 min, 1 h, 2 h and 4 h. Stability in the serum was carried out by adding 70 µL of the labeled compound (∼35 MBq) to 330 µL of mouse serum (Merck, Haarlerbergweg, The Netherlands). The mixture was incubated at 37 °C. At different time points (30 min, 1 h, 2 h and 4 h), an aliquot of the mixture (50 µL) was added to 50 µL ACN. The vial was vortexed and centrifuged at 10,000 rpm for 20 min and the supernatant was analyzed by iTLC.

[2] = Ex vivo biodistribution after SPECT/CT scanning; type: in vivo, mouse; conditions: mouse, iv, ~3 h p.i.; for tissue to tissue ratio: male, Balb/c nu/nu, total radioactivity, radioactivity; for tissue uptake at 3 h: PC-3 xenograft mice, i.v.
Protocol: (§1) Seven-week-old male Balb/c nu/nu-specific and opportunistic pathogen-free (SOPF) mice (Janvier Labs, Le Genest-Saint-Isle, France) were housed in individually ventilated cages, with 4 mice per cage. Upon arrival, mice were acclimated for 1 week, with access to food and water ad libitum. Mice were subcutaneously inoculated on the right shoulder with PC-3 cells (5 × 10^6 cells suspended in 100 µL of 1/3 Matrigel (Corning Inc., Corning, NY, USA) and 2/3 Hank’s balanced salt solution (Gibco). PC-3 xenografts were allowed to grow for 3 weeks. Tumor sizes were 391 ± 173 mm^3 at the start of the studies. All animal experiments were approved by the Animal Welfare Committee of the Erasmus MC and were conducted in agreement with institutional guidelines (license number: AVD101002017867, 28 September 2017).
(§2) To determine the biodistribution of the compounds after imaging (~3 h p.i.), blood was collected via cardiac puncture under isoflurane/O2 anesthesia, after which the mice were sacrificed. The tumor and organs of interest (prostate, pancreas, spleen, liver, GI tract (stomach, small intestine, cecum, large intestine), kidneys, lungs, heart, muscle, bone, and brain) were excised, washed in PBS and blotted dry. The stomach, intestines and cecum were emptied of their contents. The tumor was cut in half; one half was fresh-frozen for further analysis and the other half was collected for ex vivo optical imaging and radioactivity measurements. After imaging, the blood, tumor, and relevant organs were weighed and measured in a γ-counter. To determine the total injected radioactivity per animal, samples of the injected solutions were measured as well. The percentage of injected dose per gram (%ID/g) was determined for each tissue sample and corrected for both the injected volume and %ID present at the injection site (the tail). Because the low weight of the prostate limited accurate organ weight measurements, the average prostate weight of all animals was used.

[3] = tested on: PC-3-xenograft Balb/c nu/nu mice; assay: Ex vivo biodistribution after SPECT/CT scanning; type: in vivo, mouse; conditions: radioactivity, ~3 h p.i.
Protocol: as §1, §2

[4] = tested on: PC-3-xenograft Balb/c nu/nu mice; assay: Ex vivo optical (fluorescence, IVIS) imaging of organs; type: in vivo, mouse; conditions: ex vivo after dissection, ex/em 640/680 nm
Protocol: as §1
Before gamma counter measurements, the tumor half, pancreas, kidneys, lungs, small intestine, large intestine, liver, muscle, and bone were placed in two petri dishes and ex vivo optical imaging was performed with the IVIS Spectrum system (Perkin Elmer, Waltham, MA, USA) using the following settings for all measurements: FOV 12.6 cm, medium binning, f2, 0.5 s exposure with an excitation/emission filter of 640 nm/680 nm. Living Image version 4.5.2 software (Perkin Elmer) was used to perform data analysis by drawing a region of interest around the organ/tissue to quantify the radiant efficiency {(photons/second/cm^2/steradian)/(μW/cm^2)}.

[5] = blocked with 150 nmol unlabeled NeoB, n = 1
[6] = non-blocked, n = 3, listed as [111In]In‐12

## CC(C)CC(CC(C)C)NC(=O)[C@H](Cc1c[nH]cn1)NC(=O)CNC(=O)[C@@H](NC(=O)[C@H](C)NC(=O)[C@H](Cc1c[nH]c2ccccc12)NC(=O)[C@H](CCC(N)=O)NC(=O)[C@@H](Cc1ccccc1)NC(=O)COCC(=O)Nc1ccc(CNC(=O)[C@H](CCCCNC(=O)CCOCCOCCOCCOCCNC(=O)OC2CCCC3C=NN=C(c4ccc(CNC(=O)CCCCC[N+]5=C(/C=C/C=C/C=C6N(C)c7ccc(S(=O)(=O)O)cc7C6(C)C)C(C)(C)c6cc(S(=O)(=O)[O-])ccc65)cc4)C3CC2)NC(=O)CN2CCN(CC(=O)O)CCN(CC(=O)O)CCN(CC(=O)O)CC2)cc1)C(C)C (stereo partly drawn) [[^111In]In-12, metal not drawn]
[1]; 30 min
  Stability in PBS (%) 30 min: 85.8%
[1]; 1 h
  Stability in PBS (%) 1 h: 80.1%
[1]; 2 h
  Stability in PBS (%) 2 h: 75.0%
[1]; 4 h
  Stability in PBS (%) 4 h: 73.1%
[2]; tumor and blood, non-blocked, n = 3, read-out: Tumor-to-blood ratio
  tissue to tissue ratio: 1.09 ± 0.15
[2]; tumor and kidney, blocked with 150 nmol unlabeled NeoB, n = 1, read-out: Tumor-to-kidney ratio
  tissue to tissue ratio: 0.16
[2]; tumor and kidney, non-blocked, n = 3, read-out: Tumor-to-kidney ratio
  tissue to tissue ratio: 0.34 ± 0.05
[2]; tumor and liver, blocked with 150 nmol unlabeled NeoB, n = 1, read-out: Tumor-to-liver ratio
  tissue to tissue ratio: 0.14
[2]; tumor and liver, non-blocked, n = 3, read-out: Tumor-to-liver ratio
  tissue to tissue ratio: 0.55 ± 0.04
[2]; tumor and muscle, blocked with 150 nmol unlabeled NeoB, n = 1, read-out: Tumor-to-muscle ratio
  tissue to tissue ratio: 2.62
[2]; tumor and muscle, non-blocked, n = 3, read-out: Tumor-to-muscle ratio
  tissue to tissue ratio: 9.04 ± 1.74
[2]; tumor and pancreas, blocked with 150 nmol unlabeled NeoB, n = 1, read-out: Tumor-to-pancreas ratio
  tissue to tissue ratio: 2.16
[2]; tumor and pancreas, non-blocked, n = 3, read-out: Tumor-to-pancreas ratio
  tissue to tissue ratio: 0.51 ± 0.03
[2]; blood, blocked with 150 nmol unlabeled NeoB, n = 1, read-out: Blood uptake
  tissue uptake at 3 h: 7.31 %ID/g
[2]; blood, non-blocked, n = 3, read-out: Blood uptake
  tissue uptake at 3 h: 7.83 ± 0.84 %ID/g
[2]; bone, blocked with 150 nmol unlabeled NeoB, n = 1, read-out: Bone uptake
  tissue uptake at 3 h: 1.87 %ID/g
[2]; bone, non-blocked, n = 3, read-out: Bone uptake
  tissue uptake at 3 h: 2.03 ± 0.89 %ID/g
[2]; brain, blocked with 150 nmol unlabeled NeoB, n = 1, read-out: Brain uptake
  tissue uptake at 3 h: 0.2 %ID/g
[2]; brain, non-blocked, n = 3, read-out: Brain uptake
  tissue uptake at 3 h: 0.2 ± 0.03 %ID/g
[2]; cecum, blocked with 150 nmol unlabeled NeoB, n = 1, read-out: Cecum uptake
  tissue uptake at 3 h: 2.35 %ID/g
[2]; cecum, non-blocked, n = 3, read-out: Cecum uptake
  tissue uptake at 3 h: 3.73 ± 0.4 %ID/g
[2]; heart, blocked with 150 nmol unlabeled NeoB, n = 1, read-out: Heart uptake
  tissue uptake at 3 h: 2.24 %ID/g
[2]; heart, non-blocked, n = 3, read-out: Heart uptake
  tissue uptake at 3 h: 2.39 ± 0.23 %ID/g
[2]; kidneys, blocked with 150 nmol unlabeled NeoB, n = 1, read-out: Kidneys uptake
  tissue uptake at 3 h: 17.1 %ID/g
[2]; kidneys, non-blocked, n = 3, read-out: Kidneys uptake
  tissue uptake at 3 h: 24.9 ± 2.78 %ID/g
[2]; large intestine, blocked with 150 nmol unlabeled NeoB, n = 1, read-out: Large intestine uptake
  tissue uptake at 3 h: 2.06 %ID/g
[2]; large intestine, non-blocked, n = 3, read-out: Large intestine uptake
  tissue uptake at 3 h: 3.88 ± 0.4 %ID/g
[2]; liver, blocked with 150 nmol unlabeled NeoB, n = 1, read-out: Liver uptake
  tissue uptake at 3 h: 20 %ID/g
[2]; liver, non-blocked, n = 3, read-out: Liver uptake
  tissue uptake at 3 h: 15.3 ± 0.43 %ID/g
[2]; lungs, blocked with 150 nmol unlabeled NeoB, n = 1, read-out: Lungs uptake
  tissue uptake at 3 h: 16.1 %ID/g
[2]; lungs, non-blocked, n = 3, read-out: Lungs uptake
  tissue uptake at 3 h: 6.51 ± 1.15 %ID/g
[2]; muscle, blocked with 150 nmol unlabeled NeoB, n = 1, read-out: Muscle uptake
  tissue uptake at 3 h: 1.04 %ID/g
[2]; muscle, non-blocked, n = 3, read-out: Muscle uptake
  tissue uptake at 3 h: 0.96 ± 0.16 %ID/g
[2]; pancreas, blocked with 150 nmol unlabeled NeoB, n = 1, read-out: Pancreas uptake
  tissue uptake at 3 h: 1.26 %ID/g
[2]; pancreas, non-blocked, n = 3, read-out: Pancreas uptake
  tissue uptake at 3 h: 16.6 ± 1.41 %ID/g
[2]; prostate, blocked with 150 nmol unlabeled NeoB, n = 1, read-out: Prostate uptake
  tissue uptake at 3 h: 4.36 %ID/g
[2]; prostate, non-blocked, n = 3, read-out: Prostate uptake
  tissue uptake at 3 h: 3.56 ± 1.62 %ID/g
[2]; small intestine, blocked with 150 nmol unlabeled NeoB, n = 1, read-out: Small intestine uptake
  tissue uptake at 3 h: 1.45 %ID/g
[2]; small intestine, non-blocked, n = 3, read-out: Small intestine uptake
  tissue uptake at 3 h: 4.4 ± 2.45 %ID/g
[2]; spleen, blocked with 150 nmol unlabeled NeoB, n = 1, read-out: Spleen uptake
  tissue uptake at 3 h: 3.32 %ID/g
[2]; spleen, non-blocked, n = 3, read-out: Spleen uptake
  tissue uptake at 3 h: 4.11 ± 0.94 %ID/g
[2]; stomach, blocked with 150 nmol unlabeled NeoB, n = 1, read-out: Stomach uptake
  tissue uptake at 3 h: 3.12 %ID/g
[2]; stomach, non-blocked, n = 3, read-out: Stomach uptake
  tissue uptake at 3 h: 3.22 ± 0.54 %ID/g
[2]; tumor, blocked with 150 nmol unlabeled NeoB, n = 1, read-out: Tumor uptake
  tissue uptake at 3 h: 2.72 %ID/g
[2]; tumor, non-blocked, n = 3, read-out: Tumor uptake
  tissue uptake at 3 h: 8.47 ± 0.46 %ID/g
[3]; [5]
  Tumor-to-blood ratio: 0.37
  Tumor-to-prostate ratio: 0.62
[3]; non-blocked, n = 3
  Tumor-to-prostate ratio: 2.86 ± 1.58
[4]; [5]
  Fluorescent signal, bone (average radiant efficiency): 0.32 × 10^8 p/sec/cm^2/sr per µW/cm
  Fluorescent signal, kidneys (average radiant efficiency): 5.42 × 10^8 p/sec/cm^2/sr per µW/cm
  Fluorescent signal, large intestine (average radiant efficiency): 0.47 × 10^8 p/sec/cm^2/sr per µW/cm
  Fluorescent signal, liver (average radiant efficiency): 2.42 × 10^8 p/sec/cm^2/sr per µW/cm
  Fluorescent signal, lungs (average radiant efficiency): 2.88 × 10^8 p/sec/cm^2/sr per µW/cm
  Fluorescent signal, muscle (average radiant efficiency): 0.76 × 10^8 p/sec/cm^2/sr per µW/cm
  Fluorescent signal, pancreas (average radiant efficiency): 0.66 × 10^8 p/sec/cm^2/sr per µW/cm
  Fluorescent signal, small intestine (average radiant efficiency): 0.44 × 10^8 p/sec/cm^2/sr per µW/cm
  Fluorescent signal, tumor (average radiant efficiency): 1.67 × 10^8 p/sec/cm^2/sr per µW/cm
[4]; non-blocked, n = 3
  Fluorescent signal, bone (average radiant efficiency): 0.40 ± 0.11 × 10^8 p/sec/cm^2/sr per µW/cm
  Fluorescent signal, kidneys (average radiant efficiency): 9.41 ± 0.92 × 10^8 p/sec/cm^2/sr per µW/cm^2
  Fluorescent signal, large intestine (average radiant efficiency): 0.68 ± 0.19 × 10^8 p/sec/cm^2/sr per µW/cm
  Fluorescent signal, liver (average radiant efficiency): 2.20 ± 0.09 × 10^8 p/sec/cm^2/sr per µW/cm
  Fluorescent signal, lungs (average radiant efficiency): 1.93 ± 0.18 × 10^8 p/sec/cm^2/sr per µW/cm
  Fluorescent signal, muscle (average radiant efficiency): 0.78 ± 0.08 × 10^8 p/sec/cm^2/sr per µW/cm
  Fluorescent signal, pancreas (average radiant efficiency): 6.32 ± 0.50 × 10^8 p/sec/cm^2/sr per µW/cm^2
  Fluorescent signal, small intestine (average radiant efficiency): 0.85 ± 0.30 × 10^8 p/sec/cm^2/sr per µW/cm
  Fluorescent signal, tumor (average radiant efficiency): 4.31 ± 1.03 × 10^8 p/sec/cm^2/sr per µW/cm^2
[4]; [6]
  Fluorescent signal, kidneys (average radiant efficiency): 9.41 ± 0.92 × 10^8 p/sec/cm^2/sr per µW/cm
  Fluorescent signal, pancreas (average radiant efficiency): 6.32 ± 0.50 × 10^8 p/sec/cm^2/sr per µW/cm
  Fluorescent signal, tumor (average radiant efficiency): 4.31 ± 1.03 × 10^8 p/sec/cm^2/sr per µW/cm
